According to publication PMC10022797, “Role of Nesprin-2 and RanBP2 in BICD2-associated brain developmental disorders” (PLOS Genetics, 2023):

B5: GST-tagged RanBP2 fragment (BICD2 binding domain, aa 2148–2240), on glutathione Sepharose (domain or fragment, human, UniProt P49792 2148-2240, looked up)
chain: DIPLQTPHKLVDTGRAAKLIQRAEEMKSGLKDFKTFLTNDQTKVTEEENKGSGTGAAGASDTTIKPNPENTGPTLEWDNYDLREDALDDSVSS
notes: GST fusion from the pGEX-6P-1 vector; also called GST-RanBP2; BBD; source: E. coli, purified on glutathione Sepharose, not eluted

Tests used:
[1] = target: Purified Nesprin-2 fragment (N2G SR 52–56), used in size exclusion chromatography (mouse) (UniProt Q6ZWQ0); assay: SEC; pairwise mixtures, Nesprin-2 or RanBP2 with BICD2-CC3 WT or mutant at 1:2; 1.3 mg Nesprin-2, 0.2 mg RanBP2, 0.4 mg BICD2-CC3; Superdex 200 Increase 10/300 GL; 20 mM HEPES pH 7.5, 150 mM NaCl, 0.5 mM TCEP; bands quantified (Fig 6C-6G, S3, S6)
[2] = target: GST-His6-BICD2-CT (aa 630–820) E770G (mouse) (UniProt Q921C5); assay: pull-down; GST-His6-BICD2-CT WT or mutant on glutathione magnetic beads, incubated 3 hrs at 4°C with untransfected or GFP-Nesprin-2 expressing HeLaM lysate (RIPA buffer); immunoblot with anti-RanBP2, anti-GFP and anti-GST, signal ratio normalised to wildtype
[3] = target: GST-tagged Nesprin-2 fragment (N2G SR 52–56), on glutathione Sepharose (mouse) (UniProt Q6ZWQ0); assay: pull-down; GST-RanBP2 or GST-Nesprin-2 held on glutathione Sepharose (not eluted), purified His6-tagged BICD2 fragment added to the column, washed, eluted; Coomassie-stained SDS-PAGE, bands quantified (3 sets)
[4] = target: GFP tagged Nesprin-2 fragment (GFP-N2G SR), Q6ZWQ0; assay: GST pull-down with immunoblot quantification; settings: chain shown with the change; GFP-Nesprin-2 expressing HeLaM cell lysate; n = 3; parent: est. 1.0; read off a plot
[5] = target: T1, RanBP2 fragment (aa 2148–2240), GST cleaved (human, UniProt P49792 2148-2240); assay: SEC; competition: Nesprin-2, RanBP2 and BICD2-CC3 WT or mutant mixed at 1:1:2 molar ratio; Superdex 200 Increase 10/300 GL; 20 mM HEPES pH 7.5, 150 mM NaCl, 0.5 mM TCEP (Fig 6L, 6M, S3I, S3J); settings: both partners purified
T1 construct: expressed as GST fusion from the pGEX-6P-1 vector; also called Hs RanBP2 (aa 2148–2240); BBD

[6] = target: B5; assay: pull-down; GST-RanBP2 or GST-Nesprin-2 held on glutathione Sepharose (not eluted), purified His6-tagged BICD2 fragment added to the column, washed, eluted; Coomassie-stained SDS-PAGE, bands quantified (3 sets); settings: both partners purified
[7] = target: T1, RanBP2 fragment (aa 2148–2240), GST …; assay: SEC; pairwise mixtures, equimolar; Superdex 200 Increase 10/300 GL; 20 mM HEPES pH 7.5, 150 mM NaCl, 0.5 mM TCEP, 1 mM MgCl2; 1.3 mg Nesprin-2, 0.2 mg RanBP2, 0.2 mg BICD2-CC3; fractions on SDS-PAGE (Fig 2D, 2E); settings: both partners purified
BICD2 aa 630–800 = target: T2, BICD2 aa 630–800 (mouse, UniProt Q921C5-1 630-800); assay: pull-down; GST-RanBP2 or GST-Nesprin-2 held on glutathione Sepharose (not eluted), purified His6-tagged BICD2 fragment added to the column, washed, eluted; Coomassie-stained SDS-PAGE, bands quantified (3 sets); settings: both partners purified
T2 construct: Bicd2 (Bicaudal D2), mouse, aa 630–800, contains the entire predicted CC3 domain; cloned into pet28a (NdeI, XhoI); also called Ms BICD2 aa 630–800
T2 sequence (looked up): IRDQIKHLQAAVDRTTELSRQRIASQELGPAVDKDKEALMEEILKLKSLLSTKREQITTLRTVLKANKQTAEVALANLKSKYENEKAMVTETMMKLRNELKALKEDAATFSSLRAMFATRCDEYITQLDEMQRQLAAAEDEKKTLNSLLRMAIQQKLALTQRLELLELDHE

BICD2-CC3 (aa 711–800), His6-tagged (from UniProt Q921C5-1 711-800) (domain or fragment)
percent of BICD2-CC3 that co-elutes with Nesprin-2 [1]: 23%

BICD2-CC3 (aa 711–800) F739I/R743C (from UniProt Q921C5-1 711-800) (domain or fragment)
percent of BICD2-CC3 that co-elutes with Nesprin-2 [1]: 94%

GFP tagged Nesprin-2 fragment (GFP-N2G SR) (from UniProt Q6ZWQ0 1-6874) (domain or fragment)
fold change in GFP-Nesprin-2 binding against wildtype BICD2-CT [2]: 6 fold

BICD2 aa 750–800 (from UniProt Q921C5-1 750-800) (domain or fragment)
amount of bound molecules compared to the longer fragments (aa 630–800 and 711–800) [3]: 73%

B1: GST-His6-BICD2-CT (aa 630–820) wildtype, Q921C5-1 T699M (protein)
chain: IRDQIKHLQAAVDRTTELSRQRIASQELGPAVDKDKEALMEEILKLKSLLSTKREQITTLRTVLKANKQMAEVALANLKSKYENEKAMVTETMMKLRNELKALKEDAATFSSLRAMFATRCDEYITQLDEMQRQLAAAEDEKKTLNSLLRMAIQQKLALTQRLELLELDHEQTRRGRSKAASKAKPASPSL
ratio to parent [4]: 0.53

B2: GST-His6-BICD2-CT (aa 630–820) wildtype, Q921C5-1 L679R (protein)
chain: IRDQIKHLQAAVDRTTELSRQRIASQELGPAVDKDKEALMEEILKLKSLRSTKREQITTLRTVLKANKQTAEVALANLKSKYENEKAMVTETMMKLRNELKALKEDAATFSSLRAMFATRCDEYITQLDEMQRQLAAAEDEKKTLNSLLRMAIQQKLALTQRLELLELDHEQTRRGRSKAASKAKPASPSL
ratio to parent [4]: 2.7

B3: BICD2-CC3 (aa 711–800), His6-tagged (domain or fragment, mouse, UniProt Q921C5-1 711-800, looked up)
chain: YENEKAMVTETMMKLRNELKALKEDAATFSSLRAMFATRCDEYITQLDEMQRQLAAAEDEKKTLNSLLRMAIQQKLALTQRLELLELDHE
notes: also called Ms BICD2-CC3; source: E. coli LOBSTR-BL21(DE3)-RIL, purified (Ni-NTA)
binding result [5]: binds
binding result [6]: binds

B4: BICD2-CC3 (residues 711–800), His6 tag removed (domain or fragment, mouse, UniProt Q921C5-1 711-800, looked up)
chain: YENEKAMVTETMMKLRNELKALKEDAATFSSLRAMFATRCDEYITQLDEMQRQLAAAEDEKKTLNSLLRMAIQQKLALTQRLELLELDHE
binding result [7]: binds

B5
binding result (BICD2 aa 630–800): binds
